Assay results reported in the supplement of paper PMC9170038.

System: MS2 coat protein
Experiment: apparent KD of MS2 coat protein; designed switch direction (-1 OFF switch, 1 ON switch): 1; higher = weaker reporter binding
Procedure, shortened: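 The apparent KD reported per design is the median over clusters of curve fits to normalised cluster fluorescence. The RNA switches were transcribed on Illumina chips by stalled E. coli RNA polymerase. SNAP-549-labelled MS2 coat protein was titrated from 0.7 or 1.5 nM, doubling up to 3 µM, in Tris-HCl pH 7.5 buffer containing KCl, MgCl2, BSA, DTT, tRNA and Tween-20, with no input, 200 uM small-molecule ligand, or an oligonucleotide input.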

[1] = input ligand: microRNA oligo, concentration not stated
[2] = Eterna round: R95, input ligand: FMN 200 uM
[3] = Eterna round: R95, input ligand: microRNA oligo, concentration not stated
[4] = Eterna round: R95, input ligand: none

For “UGAGCCGGCACUGAGGAUAUUCAUAAUAAAACAUGAGGAUCACCCAUGUAGGCCAGAAGGCCUUGGGAGAAGGCAGGUCGGCUCA [Mat - Same State 2 - Mod of UCT - D71] (Eterna round: R96, puzzle: Same State 2)”, the “apparent KD of MS2 coat protein” value (input ligand: FMN 200 uM) was 15.7 nM, the “apparent KD of MS2 coat protein” value [1] was 147 nM and the “apparent KD of MS2 coat protein” value (input ligand: none) was 191 nM.
“UGAGCCGGCACUGAGGAUAUUCAUAAUAAAACAUGAGGAUCACCCAUGUAGGCCAGAAGGCCUUGGGAGAAGGCAGGUCGGCUCA [Mat - Same State 2 - Mod of UCT - D71] (puzzle: Same State 2)” was tested, and the “apparent KD of MS2 coat protein” value [2] was 16.7 nM, the “apparent KD of MS2 coat protein” value [3] was 134 nM and the “apparent KD of MS2 coat protein” value [4] was 247 nM.
With “UGAGCCGGCACUGAGGAUAUUCAUAAUAAAACAUGAGGAUCACCCAUGUAGGCCAGAAGGCCUUGGGAGAAGGCAGGUCGGCUCU [Mat - Same State 2 - Mod of UCT - D70] (puzzle: Same State 2)” the “apparent KD of MS2 coat protein” value [2] was 13.8 nM, the “apparent KD of MS2 coat protein” value [3] was 142 nM and the “apparent KD of MS2 coat protein” value [4] was 292 nM.
In the case of “UGGAUCUAGGCUUGCCUGGGUCCAUGUUGACAUGAGGAUCACCCAUGUGUAUUUUUUUUGCUUUUUGUUUGUCAACA [JL A Humble Attempt mod 4] (puzzle: Sensor for hsa-mir-208a)”, the “apparent KD of MS2 coat protein” value [2] is reported as 31.5 nM, the “apparent KD of MS2 coat protein” value [3] is reported as 16.7 nM and the “apparent KD of MS2 coat protein” value [4] is reported as 34 nM.
In the case of “UGGCUCAGACGAGGAUAUAUGCGAUCACAUGAGGAUCACCCAUGUCUCGAGCUUCGGCUCGAGGCAUAGAAGGUGUCUGAGCCA [SSNG2/4-C2] (Eterna round: R96, puzzle: Same State NG 2)”, the “apparent KD of MS2 coat protein” value (input ligand: FMN 200 uM) is reported as 40.9 nM, the “apparent KD of MS2 coat protein” value [1] is reported as 83.1 nM and the “apparent KD of MS2 coat protein” value (input ligand: none) is reported as 145 nM.
For “UGGCUCAGACGAGGAUAUAUGUGAUCACAUGAGGAUCACCCAUGUCUCGAGCUUCGGCUCGAGACAUAGAAGGUGUCUGAGCCU [SSNG2/3-C3] (Eterna round: R96, puzzle: Same State NG 2)”, the “apparent KD of MS2 coat protein” value (input ligand: FMN 200 uM) was 53.9 nM, the “apparent KD of MS2 coat protein” value [1] was 12.2 nM and the “apparent KD of MS2 coat protein” value (input ligand: none) was 6.64 nM.
“UGGCUCAGACGAGGAUAUAUGUGGUCACAUGAGGAUCACCCAUGUCUCGAGCUUCGGCUCGAGGCAUAGAAGGUGUCUGAGCCU [SSNG2/5-C3] (Eterna round: R96, puzzle: Same State NG 2)” was tested, and the “apparent KD of MS2 coat protein” value (input ligand: FMN 200 uM) was 132 nM, the “apparent KD of MS2 coat protein” value [1] was 33.5 nM and the “apparent KD of MS2 coat protein” value (input ligand: none) was 23.1 nM.
For “UGGCUCAGAGCAGGAUAUAUGCGAUCACAUGAGGAUCACCCAUGUCUCGAGCUUCGGCUCGAGGCAUAGAAGGGCUCUGAGCCU [SSNG2/4-B3] (Eterna round: R96, puzzle: Same State NG 2)”, the “apparent KD of MS2 coat protein” value (input ligand: FMN 200 uM) was 14.9 nM, the “apparent KD of MS2 coat protein” value [1] was 32.6 nM and the “apparent KD of MS2 coat protein” value (input ligand: none) was 45.5 nM.
With “UGGUACAUGGGAGGAUAUCAUGUAGAAACAUGAGGAUCACCCAUGUGGAUGGAGACAUCGGAGAUUGAGAAGGCCCAUGUACCU [JL SSNG1 3.56] (Eterna round: R96, puzzle: Same State NG 2)” the “apparent KD of MS2 coat protein” value (input ligand: FMN 200 uM) was 15.6 nM, the “apparent KD of MS2 coat protein” value [1] was 20.9 nM and the “apparent KD of MS2 coat protein” value (input ligand: none) was 25.2 nM.
In the case of “UGGUACAUGGGAGGAUAUGGGCAUGAGACAUGAGGAUCACCCAUGUAUUAAAAGCCGAGAGGCAUCUAGAAGGCCCAUGUACCU [JL SSNG1 3.89] (Eterna round: R96, puzzle: Same State NG 2)”, the “apparent KD of MS2 coat protein” value (input ligand: FMN 200 uM) is reported as 15.8 nM, the “apparent KD of MS2 coat protein” value [1] is reported as 80.2 nM and the “apparent KD of MS2 coat protein” value (input ligand: none) is reported as 158 nM.
“UGUACCUUCACAGGAUAUCAUGCGAAAAUUGCGUGAGAAGGGUGAAUACUGUCUUUCUAAGAGUACAUGAGGAUCACCCAUGUA [SameState NG1 #60] (Eterna round: R96, puzzle: Same State NG 1)” was tested, and the “apparent KD of MS2 coat protein” value (input ligand: FMN 200 uM) was 50 nM, the “apparent KD of MS2 coat protein” value [1] was 56.1 nM and the “apparent KD of MS2 coat protein” value (input ligand: none) was 73.8 nM.
“UGUCCAGCCUGAGCUGGACAAAAGCAUGUACAUGAGGAUCACCCAUGUUCAUGUACAAGCUUUUUGCUCGUCUUAGC [salish99_208a_r3_067] (puzzle: Sensor for hsa-mir-208a)” was tested, and the “apparent KD of MS2 coat protein” value [2] was 624 nM, the “apparent KD of MS2 coat protein” value [3] was 13.6 nM and the “apparent KD of MS2 coat protein” value [4] was 547 nM.
“UGUCCAGCCUGAGCUGGACAAAAGCAUGUACAUGAGGAUCACCCAUGUUCAUGUACAAGCUUUUUGCUCGUCUUGCA [salish99_208a_r3_109x] (puzzle: Sensor for hsa-mir-208a)” was tested, and the “apparent KD of MS2 coat protein” value [2] was 637 nM, the “apparent KD of MS2 coat protein” value [3] was 14.5 nM and the “apparent KD of MS2 coat protein” value [4] was 492 nM.
For “UGUUAACAUGAGGAUCACCCAUGUCAAAUGAAUCGAGGAUAUGGUAAGUAAUAAGAUAAUCUAGAAGGCGAAGUUG [Altered State 1-23 - Jieux - Same State 1] (puzzle: Same State 1)”, the “apparent KD of MS2 coat protein” value [2] was 42.6 nM, the “apparent KD of MS2 coat protein” value [3] was 55.8 nM and the “apparent KD of MS2 coat protein” value [4] was 58 nM.
For “UGUUAGUAGACAGGAUAUUGAAUGUUAAGUAUUAACAUGAGGAUCACCCAUGUAUUAGAUUGGUACAAGAAGGGUCAAGUAAGU [JR_SSNG2_Sub011] (Eterna round: R96, puzzle: Same State NG 2)”, the “apparent KD of MS2 coat protein” value (input ligand: FMN 200 uM) was 380 nM, the “apparent KD of MS2 coat protein” value [1] was 540 nM and the “apparent KD of MS2 coat protein” value (input ligand: none) was 247 nM.
With “UGUUAUUAGACAGGAUAUUGAAUGUUAAGUAUUAACAUGAGGAUCACCCAUGUAUUUCAUUCGUACAAGAAGGGUCAUGUUCCU [JR_SSNG2_Sub017] (Eterna round: R96, puzzle: Same State NG 2)” the “apparent KD of MS2 coat protein” value [1] was 162 nM.
In the case of “UGUUGUAUUACAGGAUAUCUAGUAUUUUUAUAUAGAGAAGGGUAUUCACAUGAGGAUCACCCAUGUAUAUACGAGGAAGUUGUG [JMF's solution 51] (Eterna round: R96, puzzle: Same State NG 1)”, the “apparent KD of MS2 coat protein” value [1] is reported as 23 nM.
With “UGUUGUAUUACAGGAUAUCUAGUAUUUUUAUCUAGAGAAGGGUAUUCACAUGAGGAUCACCCAUGUAUAUACGAGGAAGUUGUG [JMF's solution 53] (Eterna round: R96, puzzle: Same State NG 1)” the “apparent KD of MS2 coat protein” value [1] was 25.9 nM.
In the case of “UGUUGUAUUACAGGAUAUCUAUUAGAUUUAUUUAGAGAAGGGUAUUCACAUGAGGAUCACCCAUGUAUAUACGAGGAAGUUGUG [JMF's solution 86] (Eterna round: R96, puzzle: Same State NG 1)”, the “apparent KD of MS2 coat protein” value [1] is reported as 40.2 nM.
In the case of “UGUUGUAUUACAGGAUAUCUAUUAUAUUUAUUUAGAGAAGGGUAUUCACAUGAGGAUCACCCAUGUAUAUACGAGGAAGUUGUG [JMF's solution 15] (Eterna round: R96, puzzle: Same State NG 1)”, the “apparent KD of MS2 coat protein” value [1] is reported as 36.4 nM.
“UGUUGUAUUACAGGAUAUCUAUUAUUUUGAUUUAGAGAAGGGUAUUCACAUGAGGAUCACCCAUGUAUAUACGAGGAAGUUGUG [JMF's solution 22] (Eterna round: R96, puzzle: Same State NG 1)” was tested, and the “apparent KD of MS2 coat protein” value [1] was 34.4 nM.
